The chains are these.
B1: V049 (antibody, V domains shown)
VH: QVQLVESGGGVVQPGRSLRLSCAASRFPFSNYGMHWVRQAPGKGLEWVAVISFDGNNKYYGDSVKGRLTISRDNSKNTLYLQVKSLRPEDTAVYYCAKDISTGLSLALFRSPDGEGMDVWGQGTTVTVSS
VL: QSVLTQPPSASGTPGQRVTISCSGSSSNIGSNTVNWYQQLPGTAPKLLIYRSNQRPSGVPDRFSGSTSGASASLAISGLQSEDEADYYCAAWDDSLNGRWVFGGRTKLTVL
notes: IgG; donor BRA15; source: recombinant monoclonal IgG, produced and purified as previously described
B2: V044 (antibody, V domains shown)
VH: QVQLVQSGAEVKKPGASVKVSCKASGYTFTSYDINWVRQATGQGLEWMGWMNPNSGYAGYTQKFQGRITMTRNTSISTAYMELSSLRSEDTAVYFCARISSPTRLDPWGQGTLVTVSS
VL: NFMLTQPHSVSESPGKTVTISCSRSRGSIASSFVQWYQQRPGSSPTTVIYDDNQRPSGVPDRFSGSIDSSSNSASLTISGLKTEDEADYYCQSYDSISWVFGGGTKLTVL
notes: as for B1
B3: V061 (antibody, V domains shown)
VH: QVQLVQSGAEVKKPGTSVKVSCKASGYTFKNYGISWVRQAPGQGLEWMGWISAHNGNTNYAQRVQGRVTMTTDTSTSTAYMELRSLRSEDTAVYYCGRESGVASHPGDLDYWGQGTLVTVSS
VL: SYELTQPPSVSVSPGQTARITCSGDALPRQYAYWYQQKPGQAPVLLIYKDSERPSGIPERFSGSSSGTTVTLTISGVQAEDEADYYCQSADSSVVFGGGAKLTVL
notes: as for B1
B4: V043 (antibody, V domains shown)
VH: QLQLQESGPGLVKPSETLSLTCTVSGGSISSNNYYWGWIRQPPGKGLECIGTIYYSGNTYYNPSLKSRVTISVDTSKNQFSLKLGSVTAADTAVYYCARQQWLRDAFHIWGQGTMVTVSS
VL: NFMLTQPHSVSESPGKTVTISCTGSSGSIASNYVQWYQQRPGSAPTIVIYEDNQRPSGVPDRFSGSIDSSSNSASLTISGLKTEDEADYYCQSYDSNIHVVFGGGTKLTVL
notes: as for B1
B5: V042 (antibody, V domains shown)
VH: QLQLQESGPGLVKPSETLSLTCTVSGGSISSSTNYWGWIRQPPGKGLEWIGSIDYSGSTYYNPSLKSRVTMSVDTSKNQFSLKLSSVTATDTAMYYCARHVIDDSRGYYPAALDHWSQGTLVTVSS
VL: EIVLTQSPATLSLSPGERATLSCRASQSVNNYLAWYQQKPGQAPRLLIYDASNRATGVPARFSGSGSGTDFTLTISSLEPEDFAVYFCQQRSNWPPMYTFGQGTKLEIK
notes: as for B1
B6: V050 (antibody, V domains shown)
VH: EVQLVESGGGLVKPGGSLRLSCAASGFSFSNAWMSWVRQAPGKGLEWVGRIKSKTDGGTTDYAAPVKGRFTISRDDSQNTLYLQMNSLKTEDTAVYYCITDRFRVHIRGYYGQGTLVTVSS
VL: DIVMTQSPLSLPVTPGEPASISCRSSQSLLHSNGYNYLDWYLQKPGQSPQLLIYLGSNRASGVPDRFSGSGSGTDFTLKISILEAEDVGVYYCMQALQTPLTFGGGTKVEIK
notes: as for B1
B7: V062 (antibody, V domains shown)
VH: QLQLQESGPGLVKPSETLSLTCTVSSGSISSSSYYWGWIRQPPGKGLEWIGSIYYSGSTYYNPSLKSRVTISVDTSKNQFSLKLSSVTAADTAVYYCARHWRENFAHAFDIWGQGTMVTVSS
VL: QSALTQPASVSGSPGQSITISCTGTSSDVGSYDLVSWFQQHPGKAPKLMIYEVTKRPSGVSNRFSGSKSGNTASLTISGLQAEDEADYYCCSYVGSSTYWVFGGGTKLTVL
notes: as for B1
B8: V045 (antibody, V domains shown)
VH: QVQLVQSGAEVKKPGASVKVSCKASTYTFTSYYIHWVRQAPGQGLEWMGIINPSGGSTSYAQNFQGRVTMTRDTSTSTVYMELSSLRSEDTAVYYCARGVLIPAAGGDFDYWGQGTLVTVSS
VL: QSALTQPRSVSGSPGQSVTISCTGTSSDVGGYKYVSWYQQHPGKAPKLMIYDVSKRPSGVPDRFSGSKSGNTASLTISGLQAEDEADYYCCSYAGSYSWVFGGGTKLTVL
notes: as for B1
B9: V033 (antibody, V domains shown)
VH: QVQLVQSGAEVKKPGASVKVSCKASGYTFTSYGISWVRQAPGQGLEWMGWISAYNGNTNYAQKLQGRVTMTTDTSTSTAYMELRSLRSDDTAVYYCARGRFCSSTSCYRAAPNYYYYYMDVWGKGTTVTVSS
VL: NFMLTQPHSVSESPGKTVTISCTRSSGSIASNYVQWYQQRPGSAPTTVIYEDNQRPSGVPDRFSGSIDSSSNSASLTISGLKTEDEADYYCQSYDSSNPYWVFGGGTKLTVL
notes: IgG; donor BRA14; source: recombinant monoclonal IgG, produced and purified as previously described
B10: V039 (antibody, V domains shown)
VH: QVQLQESGPGLVKPSQTLSLTCTVSGGSISSGSYYWSWIRQPAGKGLEWIGRIYTSGSTNYNPSLKSRVTISVDTSKNQFSLKLSSVTAADTAVYYCARADYSDYDNYYFDYWGQGTLVTVSS
VL: NFMLTQPHSVSESPGKTVAISCTRSSGSIASNYVHWYQQRPGSSPTTVIYDDNQRPSGVPDRFSGSIDSSSNSASLTISGLKTEDEADYYCQSYDSSNHNWVFGGGTKLTVL
notes: as for B1
B11: V057 (antibody, V domains shown)
VH: EVQLVESGGGLVQPGRSLRLSCAASGFTFGDYAMHWVRQAPGKGLEWVSGISWNSGIIGQADSVKGRFTISRDNAKNSLYLQMNSLRVEDTALYYCAKGGGESVEVPADEKLDYWGQGTLVTVSS
VL: QSVLTQPPSVSGAPGQRVTISCTGSSSNIGAGYDVHWYQQLPGTAPKLLIYGNNNRPSGVPDRFSGSKSGTSASLAITGLQAEDEADYYCQSYDSSLSGSWVFGGGTKLTVL
notes: as for B1
B12: V056 (antibody, V domains shown)
VH: QVQLVESGGGVVQPGRSLRLSCAASGFPFSNYGMHWVRQAPGKGLEWVAVISYDGSNKYYADSVKGRFTISRDNSKNTLYLQMNSLRAEDTALYYCAKDSRPLPAAMSTYYYYGVDVWGQGTTVTVSS
VL: not shown
notes: as for B1
B13: V060 (antibody, V domains shown)
VH: QVQLVESGGGVVQPGRSLRLSCAASGFPFSNYGMHWVRRAPGKGLEWVAVISYDGLNKYYADSVKGRFTISRDNSKNTLYLQMNRLRAEDTAVYYCAKDSRPVPGAMSTYYYYGMDVWGQGTTVTVSS
VL: not shown
notes: as for B1
B14: V046 (antibody, V domains shown)
VH: EVQLVESGGGLVQPGRSLRLSCAASGFTFEDYAMHWVRQAPGKGLEWVSGVSWNSGTIGYADSVKGRFIISRDNAKNSLYLQMNSLRAEDTALYYCANLGPTYYDFSRPTPMDVWGKGTTVTVSS
VL: QSALTQPASVSGSPGQSITISCTGTSSDVGGYNYVSWYQQHPGKAPKLIIYDVSNRPSGVSNRFSGSKSGNTASLTISGLQAEDEADYYCSSYTSSSTWVFGGGTKLTVL
notes: as for B1
B15: V048 (antibody, V domains shown)
VH: QVQLVQSGAEVKKPGASVKVSCKASGYTFTSYVISWVRQAPGQGLEWMGWISAYNGNTNYAQKLQGRVTMTTDTSTSTAYMELRSLRSDDTAVYYCARDVAGITMIVEEVIDAFDIWGQGTMVTVSS
VL: SYELTQPSSVSVSPGQTARITCSGDVLAKKYARWFQQKPGQAPVLVIYKDSERPSGIPERFSGSSSGTTVTLTISGAQVEDEADYYCFSAPDNNRVFGGGTKLTVL
notes: as for B1
B16: V051 (antibody, V domains shown)
VH: QVQLVESGGGVVQPGRSLRLSCEASGFTFSTYAMHWVRQAPGKGLEWVAVISYDGNNKYYADSVKGRLTVSRDNSKNTLYLQMNSLRAEDTAEYYCARDDGGYCSSLSCPMDVWGQGTTVTVSS
VL: SYELTQPPSVSVAPGKTARITCGGNSIGSKSVHWYQQRPGQAPVLVIYYDSDRPSGIPERFSGSNSGNTATLTISRVEAGDEADYYCQVWDSTLVFGGGTKLTVL
notes: as for B1
B17: V054 (antibody, V domains shown)
VH: QVQLVESGGGVVQPGRSLRLSCAASGFPFSSFGMHWVRQAPGKGLEWVAVISSDGSNKYYADSVKGRFTISRDNSKNTLYLQMNSLRAEDTAVYYCAKEFTYVVVTALWGTENFDIWGQGTMVTVSS
VL: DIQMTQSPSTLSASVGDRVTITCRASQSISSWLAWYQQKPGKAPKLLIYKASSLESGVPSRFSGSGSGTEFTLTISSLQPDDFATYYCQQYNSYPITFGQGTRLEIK
notes: as for B1
B18: V038 (antibody, V domains shown)
VH: QVQLVQSGAEVKKPGASVKVSCKASGYTFTGYYVHWVRQAPGQGLEWMGWINPNSGGTNFAQRFQGRVTMTRDTSISTAYMELSRLRSDDTAVYYCARGITVYGVAPDAFDIWGQGTMVTVSS
VL: DIQMTQSPSSLSASVGDRVTITCQASQDISNYLNWYQQKPGKAPKVLIYDASNLEPGVPSRFSGSGSGTDFTFTISSLQPEDIATYYCQQYDNLITFGQGTRLEIK
notes: as for B1
B19: V055 (antibody, V domains shown)
VH: QVQLVQSGAEVKKPGSSVKVSCKASGGTFSSYIINWVRQAPGQGLEWMGRIIPILGIANYAQKFHGRVTITADESTSTAYMELSSLRSEDTAVYYCARGGPDPSDSNYAALLYYYYMDVWGKGTTVTVSS
VL: QSVLTQPPSVSAAPGQKVTISCSGSSSNIGSYYVSWYQKLPGTAPKLLIHENNKRPSGIPDRISGSKSGTSATLGITGLQTGDEADYYCGTWDSSLSDVVFGGGTKLTVL
notes: as for B1
B20: V037 (antibody, V domains shown)
VH: EVQLVESGGGLVQPGGSLRLSCAASEVIVSSNYMSWVRQAPGKGLEWVSVLYSGGSTFYADSVKGRFTISRDNSKNTLYLQMNSLRAEDTAVYYCARDLGPMGAFDIWGQGTMVTVSS
VL: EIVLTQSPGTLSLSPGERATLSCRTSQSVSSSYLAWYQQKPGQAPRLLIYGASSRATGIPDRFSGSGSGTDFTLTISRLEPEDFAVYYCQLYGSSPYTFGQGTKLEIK
notes: as for B1
B21: V004 (antibody, V domains shown)
VH: QVQLQESGPGLVKPSQTLSLTCTVSGGSISSGSYYWSWIRQPAGKGLEWIGRIYTSGSTNYNPSLKSRVTISVDTSKNQFSLKLSSVTAADTAVYYCARDTTDDYYVIWGQGTLVTVSS
VL: DIQMTQSPSTLSASVGDRVTITCRASQSIRSWLAWYQQKPGKAPKLLIYDASSLESGVPSRFSGSGSGTEFTLTISSLQPDDFATYYCQQYNTHFRTFGQGTKVEIK
notes: IgG; donor BRA13; source: recombinant monoclonal IgG, produced and purified as previously described
B22: V063 (antibody, V domains shown)
VH: QVQLVESGGGVVQPGRSLRLSCAASGFPFSSFGMHWVRQAPGKGLEWVAVISSDGSNKYYADSVKGRFTISRDNSKNTLYLQMNSLRAEDTAVYYCAKEFTYVVVTAFWGTENFDIWGQGTMVTVSS
VL: DIQMTQSPSTLSASVGDRVTITCRASQSISSWLAWYQQKPGKAPNLLIYKASALESGVPSRFSGSGSGTEFTLTISSLQPDDFATYYCQQYNSYPITFGQGTRLEIK
notes: as for B1
B23: V007 (antibody, V domains shown)
VH: QVQLVQSGAEVKKPGSSVKVSCKASGDTFSTYTISWVRQAPGQGLEWMGRIIPILGVGNYAQKFQGRVTITADKSTSTAYMELSSLRSEDTAVYYCAHTTPPGDAFDIWGQGTMVTVSS
VL: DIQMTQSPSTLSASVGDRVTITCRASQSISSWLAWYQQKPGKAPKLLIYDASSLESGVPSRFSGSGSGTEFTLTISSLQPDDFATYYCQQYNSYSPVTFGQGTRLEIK
notes: as for B21
B24: V032 (antibody, V domains shown)
VH: QVQLVESGGGVVQPGRSLRLSCAASGFTFSSYGMHWVRQAPGKGLEWVAVISYDGSNKYYADSVKGRFTISRDNSKNTLYLQMNSLRAEDTAVYYCAKVSGPYCSSTSCYTGYWDYWGQGTLVTVSS
VL: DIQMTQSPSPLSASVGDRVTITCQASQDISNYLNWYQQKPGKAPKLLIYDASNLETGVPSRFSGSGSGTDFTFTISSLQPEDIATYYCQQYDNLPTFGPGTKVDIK
notes: as for B9

The target in the assay is SARS-CoV-2 Wuhan-Hu-1 RBD (SARS-CoV-2 Wuhan-Hu-1, UniProt P0DTC2). Put plainly: BLI. The conditions noted are these: both partners purified.
As to B1, the Kd came out at 12.8 nM.
Next, B2: 5.25 nM.
B3 yielded a dissociation constant (Kd) of 13.3 nM.
The value for B4 was 4.46 nM; that for B5 was 32.5 nM.
Molecule B6 displayed a Kd of 56.9 nM.
Next, B7: 2.86 nM; B8: 2.95 nM; B9: 4.68 nM.
On to B10, for which the equilibrium dissociation constant (Kd) stood at 1.09 nM.
B11 came in with a Kd of 16.9 nM. Against the preceding molecule, the Kd is about 16-fold higher.
Next, B12: 14.3 nM; B13: 20.6 nM; B14: 0.698 nM.
B15: the Kd turned out to be 5.02 nM.
Consider B16, for which the dissociation constant Kd is 14.5 nM.
The value for B17 was 17.8 nM.
Next, B18: 5.73 nM; B19: 0.981 nM.
B20 registered a Kd of 6.9 nM.
Consider B21, for which the equilibrium dissociation constant (Kd) amounted to 3.59 nM.
Turning to B22, the Kd is 4.16 nM.
On to B23, for which the affinity, expressed as Kd, was 3.59 nM.
The molecule B24 returned an equilibrium dissociation constant (Kd) of 8.3 nM.

(Values after paper PMC9270183 (The Journal of Experimental Medicine, 2022).)
